The text below walks through data of article PMC5460035 (Nature Communications, 2017).

The target of the experiment is T1, RUVBL2-His (human, UniProt Q9Y230 1-463).
T1 construct: RUVBL2, AAA+ ATPase; cDNA amplified from a Mammalian Gene Collection clone, cloned into pET-23a+; also called polyhistidine-tagged RUVBL2; source: E. coli One Shot BL21 Star DE3, purified (Ni-NTA agarose)
The experiment is described as follows: pull-down; 500 ng GST-tagged protein with 100 ng His-tagged protein and glutathione beads in 1 ml binding buffer (50 mM NaCl, 50 mM HEPES-KOH pH 7.6, 0.1% NP-40), 2 h at 4 °C; in presence of ATP, ADP or γ-S-ATP; immunoblot. The following applies: both partners purified. (In general: Immunoblotting shows a protein as a band on a membrane.)

T1 sequence (Q9Y230 whole entry): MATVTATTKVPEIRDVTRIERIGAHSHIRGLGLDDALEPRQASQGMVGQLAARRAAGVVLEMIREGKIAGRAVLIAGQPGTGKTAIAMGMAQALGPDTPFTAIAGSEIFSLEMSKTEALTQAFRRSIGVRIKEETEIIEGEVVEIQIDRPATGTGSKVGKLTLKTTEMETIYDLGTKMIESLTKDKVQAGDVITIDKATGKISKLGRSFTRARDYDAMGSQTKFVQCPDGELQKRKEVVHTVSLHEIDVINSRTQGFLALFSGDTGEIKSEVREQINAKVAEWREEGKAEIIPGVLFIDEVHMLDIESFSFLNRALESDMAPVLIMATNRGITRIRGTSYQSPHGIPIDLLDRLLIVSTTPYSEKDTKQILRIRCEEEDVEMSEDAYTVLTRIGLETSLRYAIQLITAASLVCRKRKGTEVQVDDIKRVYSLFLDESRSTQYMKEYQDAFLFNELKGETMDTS

B1: GST-ZNHIT2 (full-length) (natural protein, human, UniProt Q9UHR6 1-403, looked up)
chain: MEPAGPCGFCPAGEVQPARYTCPRCNAPYCSLRCYRTHGTCAENFYRDQVLGELRGCSAPPSRLASALRRLRQQRETEDEPGEAGLSSGPAPGGLSGLWERLAPGEKAAFERLLSRGEAGRLLPPWRPWWWNRGAGPQLLEELDNAPGSDAAELELAPARTPPDSVKDASAAEPAAAERVLGDVPGACTPVVPTRIPAIVSLSRGPVSPLVRFQLPNVLFAYAHTLALYHGGDDALLSDFCATLLGVSGALGAQQVFASAEEALQAAAHVLEAGEHPPGPLGTRGAMHEVARILLGEGPTNQKGYTLAALGDLAQTLGRARKQAVAREERDHLYRARKKCQFLLAWTNENEAALTPLALDCARAHQAHAVVAEEVAALTGELERLWGGPVPPAPRTLIEELPS
notes: ZNHIT2, human ZNHIT family member; cDNA amplified from a Mammalian Gene Collection clone, cloned into pGEX-4T-1; also called GST-tagged ZNHIT2; source: E. coli One Shot BL21 Star DE3, purified (Glutathione Sepharose 4B)
With B1, the binding result is “binds”.
